From the nanobody polyreactivity screen of Harvey et al. (2022)

Test: yeast display, Sf9 membrane polyspecificity reagent, FACS + sequencing; frameworks hold sequencing errors
Outline: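 Nanobodies came from a synthetic yeast display library in Saccharomyces cerevisiae BJ5465, induced with galactose for 36–48 hours and stained for 1 hour at 4 °C with 10% biotinylated, detergent-solubilized Sf9 membrane reagent. Cells were enriched on streptavidin microbeads and then FACS-sorted, with low and high (top ~1%) gates set on anti-HA fluorescence for expression and streptavidin fluorescence for reagent binding. Each polyreactivity label reflects the gate a clone came from. Genes were amplified by colony PCR, sequenced by MiSeq 2 × 250 and filtered by CDR length.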
With “QVQLVESGGGLVQAGGSLRLSCAASGSLFKYYAMGWYRQAPGKERELVAAITIGGNTNYADSVKGRFTISRDNAKNTVYLQMNSLKPEDTAVYYCATGGYYSAIVYGGYDYWGQGTQVTVSS” the “polyreactivity (PSR sort gate)” value was “low polyreactivity”.
For “QVQLVESGGGLVQAGGSLRLSCAASGSIFDNYAMGWYRQAPGKEREFVAGISWSGGSTRYADSVKGRFTISRDNAKNTVYLQMNSLKPEDTAVYYCNTGYGLVDFLYGYYYWGQGTQVTVSS”, the “polyreactivity (PSR sort gate)” value was “low polyreactivity”.
In the case of “QVQLVESGGGLVHAGGSLRLSCAASGSILSSYAMGWYRQAPGKERELVAAINSGGSTNYADSVKGRFTISRDNAKNTVYLQMNSLKAEDTAVYYCNADYSYGTTLDYWGQGTHVTVSS”, the “polyreactivity (PSR sort gate)” value is reported as “low polyreactivity”.
With “QVQLVESGGGLVQAGGSLRLSCAASGRIFRYYAMGWYRQAPGKERELVARITNGAITNYADSVKGRFTISRDNAKNTVYLQMNSLKPEDTAVYYCAADPWYTLSVPSGYDYWGQGTQVTVSS” the “polyreactivity (PSR sort gate)” value was “high polyreactivity”.
With “QVHLVESGGGLVQAGGSLCLSCAASGSIFINAMGWYRQAPGKERELVATIRWRGGTTYYADSVKGRFTISRDNAKNTVYLQMNSLKPEDTAVYYCAARVHSVHYPYYYWGQGTQVTVSS” the “polyreactivity (PSR sort gate)” value was “low polyreactivity”.
In the case of “QVQLVESGGGLVHAGGSIRLSCAASGRIFDYNVMGWYRQAQGTERELVAAISWDGDSTYYADSVKGRFTISRDNAKHTVYLQKNSLKPEDTAVYYCNRVEGRTRWADEMNYWGQGTQVTVSS”, the “polyreactivity (PSR sort gate)” value is reported as “low polyreactivity”.
With “QVQLVESGGGLVQAGGRLRLSCAASGRIFGYYAIGWYRQAPGKERELVARISRGGSTYYADSVKGRFTISRDNAKNTVYLQMNSLKPEETAVYSCAATRSGYTSYTDDSGGQGTQVTVSS” the “polyreactivity (PSR sort gate)” value was “high polyreactivity”.
For “QVQLVESGGGLVQAGGSLRLSCAASGSIFTYKAMGWYRQAPGKERELVAAIRQRGGSTYYADSVKGRFTISRDNAKNTVYLQKNSLKPEDTAVYYCAARGSYVRSYYYYWGQGTQVTVSS”, the “polyreactivity (PSR sort gate)” value was “high polyreactivity”.
With “QVQLVESGGGLVQAGGSLRLSCAASGRTFRANAMGWYRQAPGKERELVAAISQRGGNTYYADSVKGRFTISRDNAKNTVYLQMNSLKPEDTAVYYCAADITTYRRGRYEYEYWGQGTQVTVSS” the “polyreactivity (PSR sort gate)” value was “high polyreactivity”.
With “QVHLVESGGGLVQAGGSHRLSCAASGRTFDNYAMGWYRQAPGKERELVAAISRRGGSTYYADSVKGRFTISRDNAKNTVYLQMNSLKPEDTAVYYCAADRLVWKPTVVGFYYWGQGTQVTVSS” the “polyreactivity (PSR sort gate)” value was “high polyreactivity”.
With “QFHLVESGGGIVQAGGSLRLSCAASGFTFAYYAMGRNRQAPGKERELVAAISSGGRTYYADSVKGRFTISRDNAQNTVYLQLNSLKPEDTAVYYCKTVPYYDALTYPFDSWGQGTQVTVSS” the “polyreactivity (PSR sort gate)” value was “low polyreactivity”.
For “QVQLVESVVGLVQARVSLRLSCASSGFIFRFYTMGWYIQPPGKESEFVPAISWSGTSTYYADSVKGRFTISRDNAKNTVYLQMNSLKPEDTAVYYCAAGYKWKGTVWIMDYWGQGTQVTVSS”, the “polyreactivity (PSR sort gate)” value was “high polyreactivity”.
In the case of “QVQLVESGGGLVQAGGSLRLSCAASGRIFPFYVMGWDRQAPGKERELVATINWSGGSTYYADSVKGRFTISRDNAKNTLYLQMNSLKPEDTAVYYCNAAPSDDYDYWGQGTQVTVSS”, the “polyreactivity (PSR sort gate)” value is reported as “low polyreactivity”.
With “QVQHVESGGGLVQAGGSLGLSCAASGRIFGVYAMGWYTQAPGKERELVAAIWSGGSTYYADSVKGRFTISRDNAKNTVYLQMNSLKPEDTAVYYCAADDAYSHRSLYSHNDYWGQGNQVTVSS” the “polyreactivity (PSR sort gate)” value was “low polyreactivity”.
In the case of “QVQLVESGGGLVQAGGSLRLSCPASGSTFYGYVMGGYRQAPGKERELVAAISGSTYYADSVKGRFTISRDNAKNTVYLQMNSLKPEDTAVYYCNADDYRSYGGDSWGQGTQVTVSS”, the “polyreactivity (PSR sort gate)” value is reported as “low polyreactivity”.
With “QFHLVESGGGLVQAGGSLRLSCAASGRNLVRYAMGCYRQAPGKERELVAAISKSGGSTYYADSVKGRFTISRDNAKNTVYLQMNSLKPEDTAVYYSNALVRRRPGYIRYDYWGQGTQVTVSS” the “polyreactivity (PSR sort gate)” value was “low polyreactivity”.
